The data set is described as follows: yeast display, Sf9 membrane polyspecificity reagent, FACS + sequencing; frameworks hold sequencing errors. The procedure, abridged: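 A nanobody's polyreactivity label depends on the gate it was sorted from. Yeast display cells were stained with 10% biotinylated, detergent-solubilized Sf9 membrane reagent for 1 hour at 4 °C, enriched on streptavidin microbeads and sorted by FACS. The low and high (top ~1%) gates were set on anti-HA fluorescence for expression and streptavidin fluorescence for reagent binding.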
Regarding “QVQLVESGGGLVQAGGSLRLSCAASGFTFIQYDMGWYRLAPGKERELVAAISSSGGSTYYADSVKGRFTISRDNAKNTVYLQMNSLKPEDTAVYNCAADPWVRLEYDYWGQGTQVTVSS”, the “polyreactivity (PSR sort gate)” value is given as “low polyreactivity”. In the case of “QVQLVESGGGLVQAGGSLRLSCAASGFTFIRYAMGCYRQAPGKERELVAAIRGTGTSTYYADSVKGRFTISRDNAKNTVYLQMNSLKPEDTAVYYCNKVAGRSPYTRYDYWGQGTQVTVSS”, the “polyreactivity (PSR sort gate)” value is “low polyreactivity”. For the sequence “QVQLVESGGGLVQAGGSLRLSCAASGFTFIRYAMGWYRQAPGKERELVASISNRGGRTYYADSVKGRFTISRDNAKNTVYLQMNSLKPEDTAVYYCAAGYSYAQYSYPFLSFAFGYWGQGTQVTVSS”, the “polyreactivity (PSR sort gate)” value is reported as “high polyreactivity”. As for “QVQLVESGGGLVQAGGSLRLSCAASGFTFIRYAMGWYRQAPGKERELVATISRSGGRTYYADSVKGRFTISRDNAKNTVYLQMNSLKPEDTAVYYCNAEAIVLNGGGYWGQGTQVTVSS”, the “polyreactivity (PSR sort gate)” value is given as “high polyreactivity”. Regarding “QVQLVESGGGLVQAGGSLRLSCAASGFTFISNAMGWYRQAPGKERELVAAISSSGGRTYYADSVKGRFTISRDNAKNTVYLQMNRLKPEDTAVYYCNADRSLLYSRKIEYDYWGQGTQVTVSS”, the “polyreactivity (PSR sort gate)” value is “low polyreactivity”. In the case of “QVQLVESGGGLVQAGGSLRLSCAASGFTFIYYAMGWSRQAPGKERELVAAIRWSGGSTYYADSVKGRFTISRDNAKNTVYLQMNSLNPEDTAVYYCAKGGPHRGTGLNDYWGQGTQVTVSS”, the “polyreactivity (PSR sort gate)” value was “high polyreactivity”.

As for “QVQLVESGGGLVQAGGSLRLSCAASGFTFIYYAMGWYRQAPGKERELVAAISKRGGSTYYADSVKGRFTISRDTAKNTVYLQMYSLKPEDTAVYYCAPAFGQRRYDYWGQGTQVTVSS”, the “polyreactivity (PSR sort gate)” value is given as “high polyreactivity”. Under “QVQLVESGGGLVQAGGSLRLSCAASGFTFIYYAMGWYRQAPGTERELVAAISTSGDSTYYADSVKGRFTISRDNAKNSVYLQMNSLKPEDTAVYYCNADWYPYLHEYDYWGQGTQVTVSS” stands “low polyreactivity”; under “QVQLVESGGGLVQAGGSLRLSCAASGFTFIYYTMGWYRQAPGKEREFVAAISWGGSTYYADSVKGRFTISRDNAKITVYLLMNSLKPEDTAVYYCNAVSAVAYTRFVYWGQGTQVTVSS”, “high polyreactivity”; under “QVQLVESGGGLVQAGGSLRLSCAASGFTFKAYAMGWYRQAPGKERELVAAISNSGGTTYYADSVKGRFTISRDNAKNTVYLQMNSLKPEDTAVYYCAAYQYYIPKMYYWGQGTQVTVSS”, “high polyreactivity”.

On to “QVQLVESGGGLVQAGGSLRLSCAASGFTFKGNAMGWYRQAPGKESELVAGISRSGRTYYADSVKGRFTISRDNAKNSVYLQMNSLKPEDTAVYYCNARNQGWASLPTMGYWGQGTQVTVSS”, for which the “polyreactivity (PSR sort gate)” value is “high polyreactivity”. “QVQLVESGGGLVQAGGSLRLSCAASGFTFKNYAMGWYRQAPGKEREFVATISSRGGSTYYADSVKGRFTISRDNAKNTVYLQMNSLKPEDPAVYYCAARYFSYGRSRQRHYYWGQGTQVTVSS”: the “polyreactivity (PSR sort gate)” value is reported as “high polyreactivity”. For “QVQLVESGGGLVQAGGSLRLSCAASGFTFKNYAMGWYRQAPGKEREFVATISSRGGSTYYADSVKGRFTISRDNAKNTVYLQMNSLKPEDTAVYYCATSRYLSRSSEYGYWGQGTQVTVSS” the value was “high polyreactivity”; for “QVQLVESGGGLVQAGGSLRLSCAASGFTFKQNAMGWYRQAPGKERELVAAISSSGRTNYADSVKGRFTISRDNAKNTVYLQMNSLKPEDTAVYYCAAATYNAYGRRSRYYHGYNSWGQGTQVTVSS”, “high polyreactivity”. In the case of “QVQLVESGGGLVQAGGSLRLSCAASGFTFKQNAMGWYRQAPGKERELVAAITRTGASTYYADSVKGRFTISRDNAKNTVYLQMNSLKPEDTAVYYCNAARRGSAYDYWGQGTQVTVSS”, the “polyreactivity (PSR sort gate)” value is recorded as “high polyreactivity”.

On to “QVQLVESGGGLVQAGGSLRLSCAASGFTFKQYGMGWYRQAPGKERELVASISYRGGSTHYADSVKGRFTISRDNAKNTVYLQMNSLKPEDTAVYYCAARVTSRTSIKGDYWGQGTQVTVSS”, for which the “polyreactivity (PSR sort gate)” value was “low polyreactivity”. Turning to “QVQLVESGGGLVQAGGSLRLSCAASGFTFKRNAMGWYRQAPGKERELVAAISWSGSRTYADSVKGRFTISRDYAKNTVYVQMNSLKPEDTAVYYCAASPGRRRRPYASLIRYDYWGQGTQVTVSS”, the “polyreactivity (PSR sort gate)” value was “high polyreactivity”. Regarding “QVQLVESGGGLVQAGGSLRLSCAASGFTFKRYAMGWYRQAPGKERELVAAISWSGGSTYYADSVKGRFTISRDNAKNTVYLQMNSLKPEDTAVYYCAADGGSTEEYYYWGQGTQVTVSS”, the “polyreactivity (PSR sort gate)” value is on record as “high polyreactivity”. As for “QVQLVESGGGLVQAGGSLRLSCAASGFTFKRYAMGWYRQAPGKERELVAAISYSGGSTYYADSVKGRFTISRDNAKNTVYLQMNSLKPEDTAVYYCAALPGRRLWTYDYWGQGTQVTVSS”, the “polyreactivity (PSR sort gate)” value is on record as “high polyreactivity”. For “QVQLVESGGGLVQAGGSLRLSCAASGFTFKRYAMGWYRQAPGKERELVAAISYSGGSTYYADSVKGRYTISRDNAKNTVYLQMNSLKPEVTAVYYCNTGRRYYSYRRDYWGQGTQVTVSS” the value was “high polyreactivity”; for “QVQLVESGGGLVQAGGSLRLSCAASGFTFKRYAMGWYRQAPGNERELVAAISYSGGSTYYADSVKWRFTISRDNAKNTVYLQMKSLKPEDTAVYYCAAPRGHGKYYSWGQGTQVTVSS”, “high polyreactivity”. Under “QVQLVESGGGLVQAGGSLRLSCAASGFTFKRYDMGWYRQAPGKERELVAAISWNGGSTYYADSVKGRFTISRDNAKNTVYLQMNSLKPEDTAVYYCAARFAYPPKRYYWGQGTQVTVSS” stands “high polyreactivity”. For “QVQLVESGGGLVQAGGSLRLSCAASGFTFKSNAMGWYRPSPGKERELVAAITWNGGSTYADSEKGRFTISRDNAKNTVYLQMNSLKPEDTAVYYCAARPYPHSAYEGDYWGRGTQVTVSS” the value was “low polyreactivity”; for “QVQLVESGGGLVQAGGSLRLSCAASGFTFKWYTMGWYRPAPGKERELVAGISRRGGSTYYADSVKGRFTISRDNAKNTVYLQMNSLKPEDTAVYYCARRFLYPYDHWGQGTQVTVSS”, “high polyreactivity”; for “QVQLVESGGGLVQAGGSLRLSCAASGFTFKYNAMGWNRQAPGKERELVASISSGSTNYADSVKGRFTISRDNAKNTVYLQMNSLKPEDTAVYYCAASVSRGKRVRYGYLFKMDYWGQGTLVTVSS”, “low polyreactivity”. With “QVQLVESGGGLVQAGGSLRLSCAASGFTFKYYAMGWYRQAPGKERELVAAINRSGGSTHYADSVKGRFTISRDIAKNTVYLQINSLKPEDTAVYYCAATGRRRTYSEYEYWGQGTQVTVSS”, the “polyreactivity (PSR sort gate)” value is “high polyreactivity”. Under “QVQLVESGGGLVQAGGSLRLSCAASGFTFKYYAMGWYRQAPGKERELVAGISLIDGSTYYADSVKGRFTISRDNAKNTVYLQMNSLKPEDTAVYSCAKDRAPDGHYGSYDYWGQGTQVTVSS” stands “low polyreactivity”. In the case of “QVQLVESGGGLVQAGGSLRLSCAASGFTFKYYAMGWYRQAPGKERELVASISWDGTRTYYADSVKGRFTISRDNAKNTVYLQMNSLKPEDTAVYDGAAVFLDYRTYSYGYWGQGTQVTVSS”, the “polyreactivity (PSR sort gate)” value is “high polyreactivity”. For “QVQLVESGGGLVQAGGSLRLSCAASGFTFKYYAMGWYRQAPGKERELVAVISTRGTNTYYADSVKGRFTISRDNAKNTVYLQMNSLKPEDTAVYYCAAVLGGNSRLDYWGQGTQVTVSS”, the “polyreactivity (PSR sort gate)” value is given as “high polyreactivity”.

With “QVQLVESGGGLVQAGGSLRLSCAASGFTFLDNAMGWYRPAPGKERELVAAISGIGGSTSYADSVKGRFTISRDNAKNTVYLQMNSLKPEDTAVYYCATRWQTVGRDTIFAYDYWGQGTQVTVSS”, the “polyreactivity (PSR sort gate)” value is recorded as “low polyreactivity”.

As to “QVQLVESGGGLVQAGGSLRLSCAASGFTFLFNTMGWYRQAPGKERELVAGISRGGSTTYADSVKGRFTISRDNAKNTVYLQMNSLKPEDTAVYYCAARTRYNWRGYDYWGQGTQVTVSS”, the “polyreactivity (PSR sort gate)” value is listed as “high polyreactivity”. As for “QVQLVESGGGLVQAGGSLRLSCAASGFTFLGYAMGWYRQAPGKERELVAAITRGGSTYYADSVKGRFTISRDNAKNTVYLQMNSLKPEDTAVYYCAARARAGGYGYWGQGTQVTVSS”, the “polyreactivity (PSR sort gate)” value is recorded as “high polyreactivity”.

Consider “QVQLVESGGGLVQAGGSLRLSCAASGFTFLGYDMGWYRQAPGKERELVAAIDYSGGSTYYADSVKGRFTISRDNAKNTVYLQMNSLKPEDTAVYYCAAEYQSGPYTWYEYWGQGTQVTVSS”, for which the “polyreactivity (PSR sort gate)” value is given as “high polyreactivity”. Under “QVQLVESGGGLVQAGGSLRLSCAASGFTFLINAMGWYRQAPGKERELVAAIRSGGSTNYADSVKGRFTISRDNAKNSVYLQMNSLKPEDTAVYYCAARRYYPYKYRYGYWGQGTQVTVSS” stands “high polyreactivity”. Under “QVQLVESGGGLVQAGGSLRLSCAASGFTFLRYAMGWYRQAPGKERELVAAITGSGGSTYYADSVKGRFTISRDNAQNTVYLQMNSLKPEDTAVYYCSIVSKFTGDYGYWGQGTQVTVSS” stands “high polyreactivity”; under “QVQLVESGGGLVQAGGSLRLSCAASGFTFLSYTMGWYRQAPGKERELVASITASGTRTYYADSVKGRFTISRDNAKNTVYLQMNRLKPEDTAVYYCAARRSGSGSHDYGYWGQGTQVTVSS”, “low polyreactivity”. Turning to “QVQLVESGGGLVQAGGSLRLSCAASGFTFLSYTMGWYRQAPGKERELVASITASGTRTYYADSVKGRFTISRDNAKNTVYLQMNRLKPEDTSVYYCAARRSGSGSHDYGYWGQGTQVTVSS”, the “polyreactivity (PSR sort gate)” value is given as “low polyreactivity”.

As to “QVQLVESGGGLVQAGGSLRLSCAASGFTFLVNTMGWYRQAPGKERELVAATITSTGASTYYADSVKGRFTISRDNAKNTVYLQMNSLKPEDTAVYYCAVDPGGGNYIYYYNEYDYWGQGTQVTVSS”, the “polyreactivity (PSR sort gate)” value is “low polyreactivity”. On to “QVQLVESGGGLVQAGGSLRLSCAASGFTFLYNAMGWYRQAPGKERELVASINSGGSTNYADSVKGRFTISRDNAKNTVYLQMNSLKPEDTAVYYCAADKGPLQRGFDYWGQGTQVTVSS”, for which the “polyreactivity (PSR sort gate)” value is “low polyreactivity”. For the sequence “QVQLVESGGGLVQAGGSLRLSCAASGFTFLYNTMGWYRQAPGKERELVAAISIRGGSTYYADSVKGRFTISRDNAKNTVYLQMNSLKPEETAVYYCAARTPPPSSRSRVYYWGLGTQVTVSS”, the “polyreactivity (PSR sort gate)” value is “high polyreactivity”. As for “QVQLVESGGGLVQAGGSLRLSCAASGFTFLYYAMGWYRQAPGKERELVAAISASSDRTYYADSVKGRFTISRDNAMNTVYLQMNSLKPDDTAVYYCAAYNSRVGGYRGYGYWGQGTLVTVSS”, the “polyreactivity (PSR sort gate)” value is “high polyreactivity”.

(Values after the nanobody polyreactivity screen of Harvey et al. (2022).)
